Data as given in patent publication JP2006523083A (dated 2006).

T1: ペプチドSE−3 (human)
T1 construct: also called SE-3; SE-3ペプチド
T1 peptide: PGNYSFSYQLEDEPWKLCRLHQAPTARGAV

T2: 可溶性EPO受容体(sEPOR)(R&D Systems Cat.#307-ER/LF) (human, UniProt P19235 25-250)
T2 construct: extracellular domain; The ELISA paragraph names only 'soluble EPO receptor' with the catalogue number; also called sEPOR; 固相化エリスロポエチン受容体
T2 sequence (looked up): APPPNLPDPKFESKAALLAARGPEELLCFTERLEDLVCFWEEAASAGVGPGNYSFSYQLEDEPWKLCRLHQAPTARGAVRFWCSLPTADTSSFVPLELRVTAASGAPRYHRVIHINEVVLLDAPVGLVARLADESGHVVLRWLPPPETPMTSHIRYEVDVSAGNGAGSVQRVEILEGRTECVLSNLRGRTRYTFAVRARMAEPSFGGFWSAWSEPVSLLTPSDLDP

T3: 全長組換えヒトEPO受容体(CHO細胞に発現) (human, UniProt P19235 25-508)
T3 construct: whole, on cells; also called 組換えEPO受容体を発現するCHO細胞; エリスロポエチン受容体
T3 sequence (looked up): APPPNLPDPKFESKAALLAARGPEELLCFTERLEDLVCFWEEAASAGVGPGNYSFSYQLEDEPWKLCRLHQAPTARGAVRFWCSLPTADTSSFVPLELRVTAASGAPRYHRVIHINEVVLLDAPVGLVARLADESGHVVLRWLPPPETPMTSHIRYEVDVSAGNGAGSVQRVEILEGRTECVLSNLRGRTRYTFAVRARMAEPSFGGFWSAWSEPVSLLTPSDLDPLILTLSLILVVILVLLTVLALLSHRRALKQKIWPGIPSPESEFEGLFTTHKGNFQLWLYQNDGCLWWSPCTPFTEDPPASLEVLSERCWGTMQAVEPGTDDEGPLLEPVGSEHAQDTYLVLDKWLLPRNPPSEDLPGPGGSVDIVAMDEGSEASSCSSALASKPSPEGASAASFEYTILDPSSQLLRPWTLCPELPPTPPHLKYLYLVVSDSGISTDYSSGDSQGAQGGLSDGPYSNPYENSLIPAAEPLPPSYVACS

B1: Ab12 (antibody, V domains shown)
VH: QVQLQESGPGLVKPSETLSLTCTVSGASISSYYWSWIRQPPGKGLEWIGYIYYSGSTNYNPSLKSRVTISVDTSKNQFSLKLRSVTAADTAVYYCARERLGIGDYWGQGTLVTVSS
VL: DIQLTQSPSSLSASVGDRVTITCRASQGIRNDLGWYQQKPGKAPKRLIYAASSLQSGVPSRFSGSGSGTEFTLTISSLQPEDFATYYCLQHNTYPPTFGQGTKVEIK
notes: Human antibody (XenoMouse XG2); also called AB-ABT2-XG2-012; ABT2-XG2-012
B2: Ab198 (antibody, V domains shown)
VH: QVQLVESGGGVVQPGRSLRLSCVASGFTFSSYGMHWVRQAPGKGLEWVAVISYDGSNKYYADSVKGRFTISRDNSKNTLYLQMNSLRVEDTAVYYCARDHGGRYVYDYGMDVWGQGTTVTVSS
VL: DIQMTQSPSSVSASIGDRVSITCRASQGISSWLAWYQQKPGKAPTLLIYAASTLQRGVPSRFSGSGSGTDFTLTISSLQPEDFATYFCQQANSFPFTFGPGTKVDIK
notes: These were not used; also called AB-ABT2-XG2-198; ABT2-XG2-198

Tests used:
[1] = molecular target: ビオチン化EpoR(Abbott CHO細胞由来 ref.#RB69084:4) (UniProt P19235); assay: immunofluorescence microscopy on EpoR-coated sheep red cells, MAB307 plus Alexa488 anti-mouse IgG Fc
ペプチドSE−3 = molecular target: T1, ペプチドSE−3; assay: ELISA on plate-coated SE-3 peptide (5 μg/ml), anti-human IgG (Fc)-HRP
[2] = molecular target: T2, 可溶性EPO受容体(sEPOR)(R&D Systems …; assay: BIAcore (antibody immobilised, soluble human EPO receptor injected), as paragraph 65 attributes it; values not given
[3] = molecular target: ヒトエリスロポエチン受容体(UT-7/Epo細胞・F36E細胞上) (human), P19235; assay: cell-based or functional assay
全長組換えヒトEPO受容体(CHO細胞に発現) = molecular target: T3, 全長組換えヒトEPO受容体(CHO細胞に発現); assay: competition with 125I-EPO on CHO cells expressing full-length human EPO receptor

| Molecule | immunofluorescence score (0-4 scale) [1] | binding result (ペプチドSE−3) | binding result [2] | F36E細胞の増殖:EPO対照との最大応答の差(モル当量基準) [3] | binding result (全長組換えヒトEPO受容体(CHO細胞に発現)) |
| --- | --- | --- | --- | --- | --- |
| マウス抗EpoR抗体(R&D Systems Cat.# MAB307) (antibody) | 4 of 4 |  |  |  |  |
| B1 |  | no binding (tested: 5 μg/ml Ab12) | binds | 10 倍 | binds |
| B2 |  |  | binds |  | binds |
